Test results published in patent US20240043504A1 (published 2024).
Where a chain is given by its changes, count along the chain named.

B1: mAb10934 (antibody, V domains shown)
VH: not shown
VL: DIQMTQSPSSLSASVGDRVTITCQASQDIWNYINWYQQKPGKAPKLLIYDASNLKTGVPSRFSGSGSGTDFTFTISSLQPEDIATYYCQQHDDLPPTFGQGTKVEIKR
B2: mAb10967 (antibody, V domains shown)
VH: EVQLVESGGGLVQPGGSLRLSCAASGFTVSSNYMSWVRQAPGKGLEWVSVIYPGGSTFYADSVKGRFTISRDNSKNTLYLQMNSLRAEDTAVYYCARDQRDFAWGQGTLVTVSS
VL: B1 VL with W30S, I33L, K55E, S77G, H91Y, D93N, K103R, V104L
B3: mAb10954 (antibody, V domains shown)
VH: EVQLVESGGGLVQPGGSLRLSCAASGITVSSNYMSWVRQAPGKGLEWVSLIYSGGSTYYADSVKGRFTISRDNSKNTLYLQMNSLRVEDTAVYYCARDHGMAAAGYNYWGQGTLVTVSS
VL: B1 VL with W30N, N31K, I33L, K55E, S76N, I83F, Y87F, H91Y, D93N, T97A
B4: mAb10935 (antibody, V domains shown)
VH: EVQLVESGGGLVQPGGSLRLSCAASGFTVSSNYMSWVRQAPGKGLEWVSLIYSGGSTYYADSVKGRFTISRHNSKNTLYLQMNSLRSEDTAVYYCARVPLGDYYYGMDVWGQGTTVTVSS
VL: B1 VL with W30N, N31K, I33L, K55E, H91S, D93N, P96L, Q100G
B5: mAb10938 (antibody, V domains shown)
VH: EVQLVESGGGLVQPGGSLRLSCAVSGFTVSSNYMSWVRQAPGKGLEWVSLIYSGGSTFYADSVKGRFTISRHNSKNTLYLQMNSLRAEDTAVYYCAREGGYSYDYNYWGQGTLVTVSS
VL: B1 VL with W30R, I33L, K55E, S65I, H91Y, D93N, P96I, K103R, V104L
B6: mAb10955 (antibody, V domains shown)
VH: EVQLVESGGGLVQPGGSLRVSCAASGFTVSRNYMSWVRQAPGKGLEWVSVIYSGGSTFYADSVKGRFTISRDNSKNTLYLQMNSLRAEDTAIYYCARYIPRFDPWGQGTLVTVSS
VL: B1 VL with W30S, I33L, Y36F, K42R, K55E, H91Y, D93N, P96I, K103R, V104L
B7: mAb10966 (antibody, V domains shown)
VH: EVQLVESGGGLVQPGGSLRLSCAASGLTVSSNYMSWVRQAPGKGLEWVSVIYSGGSTFYADSVKGRFTISRDNSKNTLYLQMNSLRPEDTAVYYCAREGRIAATGYGMDVWGQGTTVTVSS
VL: not shown
B8: mAb10921 (antibody, V domains shown)
VH: EVQLVESGGGLVQPGGSLRLSCAASGITVSSNYMSWVRQAPGKGLEWVSVIYSGGSTFYADSVKGRFTISRHNSKNTLYLQMNSLRAEDTAVYYCARERNFDAFDIWGQGTMVTVSS
VL: DIQMTQSPSSVSASVGDRVTITCRASQGISSWLAWYQQKPGKAPKLLIYAASSLQSGVPSRFSGSGSGTDFTLTISSLQPEDFATYYCQQANSFPLFTFGPGTKVDIKR
B9: mAb10957 (antibody, V domains shown)
VH: EVQLVESGGGLVQPGGSLRLSCAASGVTVSSNYMSWVRQAPGKGLEWVSVIYSGGSTFYADSVKGRFTISRDNSKNTLFLQMNSLRIEDTAVYYCARDLGPYGMDVWGQGTTVTVSS
VL: B8 VL with M4L, S10F, V11L, W32Y, S53T, D70Q, T72I, A91L, F94Y, L96G
B10: mAb10982 (antibody, V domains shown)
VH: EVQLVESGGGLVQPGGSLRLSCAASGLTVSSNYMSWVRQAPGKGLEWVSVIYSGGTTYYADSVKGRFTISRHNSKNTLSLQMNSLRAEDTAVYYCARGEGANYYGMDVWGQGTTVTVSS
VL: QSVLTQPPSVSGAPGQRVTISCTGSSSNIGTGYDVHWYQQLPGTAPKLLIYGNSNRPSGVPDRFSGSKSGTSASLAITGLQAEDEADYYCQSYDSSLSGYVVFGGGTKLTVLG
B11: mAb10985 (antibody, V domains shown)
VH: EVQLVESGGGLVQPGRSLRLSCAASGFTFDDYAMHWVRQAPGKGLEWVSGISWNRGSIGYADSVKGRFTISRDNAKNSLYLQMSSLRAEDTALYYCAKDGERWDSVVVPSARNGMDVWGQGTTVTVSS
VL: B10 VL with T31A, Y100S, V101Y, G105T, L109V
B12: mAb10986 (antibody, V domains shown)
VH: EVQLVESGGGLVQPGGSLRLSCAASEFTVSSNYMSWVRQAPGKGLEWVSVIYSGGSTFYADSVKGRFTISRDNSKNTLYLQMNSLRAEDTAVYYCARALPYGDLHFDYWGQGTLVTVSS
VL: B10 VL with S54T, G99D, Y100S, V101Y, G105T, L109V
B13: mAb10920 (antibody, V domains shown)
VH: QVQLVESGGGVVQPGRSLRLSCAASGFTFSYYGMHWVRQAPGKGLEWVAVIWYDGSNKFYADSVKGRFTISRDNSKNTLYLQMNSLRAEDTAVYYCAAARPGYYYGMDVWGQGTTVTVSS
VL: DIQMTQSPSSLSASVGDRVTITCRASQGISNYLAWFQQKPGKAPNSLIYAASSLQRGVPSKFSGSGSGTDFTLTISSLQPEDFATYYCQQYNSYPRTFGQGTKVEIKR
B14: mAb10964 (antibody, V domains shown)
VH: QVQLQESGPGLVKPSETLSLTCTVSGGSINNYYWIWIRQPPGKGLEWIGYIYHSGSTNYNPSLKSRVTISVDTSKNQFSLKVSSVTAADTAVYYCANMVRGVYEDDYWGQGTLVTVSS
VL: DIQMTQSPSSLSASVGDRVTITCRASQSISNYLNWYQQKPGKAPKLLIFAASSLRSGVPSRFSGSGSGTDFTLTISSLHPEDFATYYCQQNYNTPLTFGPGTKVDIKR
B15: mAb10937 (antibody, V domains shown)
VH: QITLKESGPTLVKPTQTLTLTCTFSGFSLSTNVVGVGWIRQPPGKALEWLALIYWNDDKRYSPSLKSRLTITKDTSKNQVVLTMTNMDPVDTATYYCAHGPTGDYFDYWGQGTLVTVSS
VL: not shown
B16: mAb10984 (antibody, V domains shown)
VH: EVQLVESGGGLVQPGGSLRLSCAASGLTVNRNYMSWVRQAPGKGLEWVSLIYSGGSTYYADSVKGRFTISRDNSKNTLYLQMNSLRLEDTAVYYCARGELGIPYGMDVWGQGTTVTVSS
VL: QSVLTQPPSVSAAPGQKVTISCSGSSSNIGNNYVSWYQQLPGTAPKLLIYDNNKRPSGIPDRFSGSKSGTSATLGITGLQTGDEADYYCGTWDSSLSAGVFGGGTKLTVLG
B17: mAb10936 (antibody, V domains shown)
VH: QVQLVESGGGVVQPGRSLRLSCAASGFTFRNYGMHWVRQAPGKGLEWVSVIWYDGSNRYYADSVKGRFTISRDTSKNTLYLQMNSLRAEDTAVYYCARDPPITGTTGGDAFDIWGQGTMVTVSS
VL: not shown
B18: mAb10939 (antibody, V domains shown)
VH: EVQLVESGGGLVQPGGSLRLSCAASGLTVSSNYMNWVRQVPGKGLEWVSVIYSGGSKFYVDSVKGRFTISRHNSKNTLYLQMNSLRPEDTAVYYCTRDAQYYGMDVWGQGTTVTVSS
VL: DIQMTQSPSSLSASVGDRVTITCRASQSISTYLHWYQQKPGEAPKLLIYAASSLQSGVPSRFSGSGSGTDFTLTISSLQPEDFATYYCQQSYSTPPEIFGQGTKLEIKR
B19: mAb10956 (antibody, V domains shown)
VH: B9 VH with V27L, F79Y, I87A, G100I, P101K
VL: not shown
B20: mAb10923 (antibody, V domains shown)
VH: QVQLVQSGAEVKKPGASVKVSCKASGYTFINYYIHWVRQAPGQGLEWMGWINPNSGGTNYAQKFQGRVTMTRDTSISTAYMELSRLRSDDTAVYYCAIITIFGVVTWFDPWGQGTLVTVSS
VL: not shown
B21: mAb10932 (antibody, V domains shown)
VH: EVQLVESGGGLVQSGGSLRLSCAASGLTVSSNYMSWVRQAPGKGLEWVSVIYSGGSTFYSDSVKGRFTISRHNSKNTLYLQMNSLRAEDTAVYYCARARGDAFDIWGQGTMVTVSS
VL: not shown
B22: mAb10971 (antibody, V domains shown)
VH: B9 VH with V12I, A60S, T68S, F79Y, I87A, G100Y, P101Y
VL: DIQLTQSPSFLSASVGDRVTITCRASQGISTYLAWYQQKPGKAPKLLIYAASTLQSGVPSRFSGSGSGTEFTLTISSLQPEDFATYYCQQLDSYPGLTFGGGTKVEIKR
B23: mAb10930 (antibody, V domains shown)
VH: EVQLVESGGGLVQPGRSLRLSCAASGFTFDDYAMYWVRQAPGKGLEWVSGISWNSGSIGYADSVKGRFTISRDNAKNSLYLQMNSLRAADTALYYCAKDKDWNSRGYYYYGMDVWGQGTTVTVSS
VL: not shown
B24: mAb10969 (antibody, V domains shown)
VH: QVQLVESGGGVVQPGRSLRLSCAASGFTFSSYAMHWVRQAPGKGLEWVAVISYDGSNKYYADSVKGRFTISRDNSKNTLYLQMNSLRAEDTAVYYCARDGRTITMVRGVIDDAFDIWGQGTMVTVSS
VL: not shown
B25: mAb10989 (antibody, V domains shown)
VH: QVQLVQSGAEVKKPGASVKVSCKASGYIFTGYYMHWVRQAPGQGLEWMGWINPNSGGANYAQKFQGRVTLTRDTSITTVYMELSRLRFDDTAVYYCARGSRYDWNQNNWFDPWGQGTLVTVSS
VL: QSALTQPASVSGSPGQSITISCTGTSSDVGTYNYVSWYQQHPGKAPKLMIFDVSNRPSGVSDRFSGSKSGNTASLTISGLQAEDEADYYCSSFTTSSTVVFGGGTKLTVLG

Experiments:
SARS-COV-2 RBD-mFc = SARS-COV-2 RBD-mFc (SARS-CoV-2); experiment: Luminex beads
[1] = target: SARS-CoV-2 RBD extracellular domain expressed with a C-terminal mouse IgG2a (SARS-COV-2 RBD-mFc) (SARS-CoV-2)

| Binder | binding result (SARS-COV-2 RBD-mFc) | Kd [1] [pM] | t1/2 [1] [h] | koff [1] [s⁻¹] | kon [1] [M⁻¹ s⁻¹] |
| --- | --- | --- | --- | --- | --- |
| B1 | binds | – | – | – | – |
| B2 | – | ≤ 25.1 | ≥ 19.2 | – | – |
| B3 | – | ≤ 17.3 | ≥ 19.2 | – | – |
| B4 | binds | – | – | – | – |
| B5 | binds | – | – | – | – |
| B6 | – | 59.2 | 8.23 | – | – |
| B7 | – | ≤ 24.9 | ≥ 19.2 | – | – |
| B8 | binds | – | – | – | – |
| B9 | – | ≤ 27.9 | ≥ 19.2 | – | – |
| B10 | – | 54.4 | 11.4 | 1.69e-05 | 310000 |
| B11 | – | 11.7 | 15.2 | – | – |
| B12 | – | ≤ 15.8 | ≥ 19.2 | – | – |
| B13 | binds | – | – | – | – |
| B14 | – | ≤ 7 | ≥ 19.2 | – | – |
| B15 | binds | – | – | – | – |
| B16 | – | ≤ 24.9 | ≥ 19.2 | – | – |
| B17 | binds | – | – | – | – |
| B18 | – | 38.7 | 16.7 | 1.15e-05 | 299000 |
| B19 | – | 395 | 1.3 | – | – |
| B20 | binds | – | – | – | – |
| B21 | binds | – | – | – | – |
| B22 | – | ≤ 25.3 | ≥ 19.2 | ≤ 1e-05 | 395000 |
| B23 | binds | – | – | – | – |
| B24 | – | 49.6 | 12.7 | – | – |
| B25 | – | – | 2.07 | – | – |
